Experimental data: patent publication US20080261863A1, “Pegylation of Vasoactive Intestinal Peptide (Vip) / Pituitary Adenylate Cyclase Activating Peptide (Pacap) Receptor 2 (Vpac2) Agonists and Methods of Use” (priority 2004, published 2008)

Target: VPAC2 receptor (human) (UniProt P41587)
Experiment: cell-based or functional assay

Sequence of VPAC2 receptor (human) (P41587 24-438): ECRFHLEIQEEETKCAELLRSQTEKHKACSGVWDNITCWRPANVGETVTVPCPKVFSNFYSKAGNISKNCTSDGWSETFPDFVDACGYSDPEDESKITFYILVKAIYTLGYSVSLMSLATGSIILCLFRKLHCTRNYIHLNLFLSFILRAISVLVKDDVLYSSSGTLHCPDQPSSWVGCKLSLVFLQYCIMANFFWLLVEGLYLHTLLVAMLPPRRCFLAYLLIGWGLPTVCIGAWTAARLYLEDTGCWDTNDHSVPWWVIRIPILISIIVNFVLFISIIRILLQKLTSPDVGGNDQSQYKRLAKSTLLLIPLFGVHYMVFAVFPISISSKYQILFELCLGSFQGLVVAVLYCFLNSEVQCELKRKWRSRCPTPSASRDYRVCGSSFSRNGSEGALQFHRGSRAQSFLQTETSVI

EC50 (nM), cAMP SPA, VPAC2 agonist activity: 0.09 nM
Substance: PACAP-27 (from UniProt P18509 132-158) (peptide)
